Assay results from patent US20180094045A1 (ASCLEPIUS SUZHOU TECHNOLOGY COMPANY GROUP, published 2018).

Assays:
[1] = target: T1, Robo1 (ORIGEN Company, number: TP327713) (UniProt Q9Y6N7 26-1651, limits assumed); assay: SPR (BIAcore), Robo1 bound on CM5 chip
T1 construct: also called receptor Robo1; target protein Robo1
Protocol: (§1) The affinity constant between the prepared protein and Robo1 was determined by SPR (Surface Plasmon resonance BIAcore200). The Robo1 (ORIGEN Company, number: TP327713) was bound on CM5 chip and used to analysis the interaction between fusion protein Slit2D2-HSA and receptor Robo1. Kinetic measurements were carried out according to the method referred by Canziani et al. (2004, Anal. Biochem. 325:301-307), simultaneously, the same method was applied to measure the affinity between Slit2N protein (Slit2N is a protein at N-terminal of slit2 with a molecular weight of about 120 KDa) and Robo1.

[2] = target: T1, Robo1 (ORIGEN Company, number: TP327713); assay: SPR (BIAcore), Robo1 bound on CM5 chip; column head 'Kd (nM)'
Protocol: as §1

T1 sequence (Q9Y6N7 26-1651 limits assumed): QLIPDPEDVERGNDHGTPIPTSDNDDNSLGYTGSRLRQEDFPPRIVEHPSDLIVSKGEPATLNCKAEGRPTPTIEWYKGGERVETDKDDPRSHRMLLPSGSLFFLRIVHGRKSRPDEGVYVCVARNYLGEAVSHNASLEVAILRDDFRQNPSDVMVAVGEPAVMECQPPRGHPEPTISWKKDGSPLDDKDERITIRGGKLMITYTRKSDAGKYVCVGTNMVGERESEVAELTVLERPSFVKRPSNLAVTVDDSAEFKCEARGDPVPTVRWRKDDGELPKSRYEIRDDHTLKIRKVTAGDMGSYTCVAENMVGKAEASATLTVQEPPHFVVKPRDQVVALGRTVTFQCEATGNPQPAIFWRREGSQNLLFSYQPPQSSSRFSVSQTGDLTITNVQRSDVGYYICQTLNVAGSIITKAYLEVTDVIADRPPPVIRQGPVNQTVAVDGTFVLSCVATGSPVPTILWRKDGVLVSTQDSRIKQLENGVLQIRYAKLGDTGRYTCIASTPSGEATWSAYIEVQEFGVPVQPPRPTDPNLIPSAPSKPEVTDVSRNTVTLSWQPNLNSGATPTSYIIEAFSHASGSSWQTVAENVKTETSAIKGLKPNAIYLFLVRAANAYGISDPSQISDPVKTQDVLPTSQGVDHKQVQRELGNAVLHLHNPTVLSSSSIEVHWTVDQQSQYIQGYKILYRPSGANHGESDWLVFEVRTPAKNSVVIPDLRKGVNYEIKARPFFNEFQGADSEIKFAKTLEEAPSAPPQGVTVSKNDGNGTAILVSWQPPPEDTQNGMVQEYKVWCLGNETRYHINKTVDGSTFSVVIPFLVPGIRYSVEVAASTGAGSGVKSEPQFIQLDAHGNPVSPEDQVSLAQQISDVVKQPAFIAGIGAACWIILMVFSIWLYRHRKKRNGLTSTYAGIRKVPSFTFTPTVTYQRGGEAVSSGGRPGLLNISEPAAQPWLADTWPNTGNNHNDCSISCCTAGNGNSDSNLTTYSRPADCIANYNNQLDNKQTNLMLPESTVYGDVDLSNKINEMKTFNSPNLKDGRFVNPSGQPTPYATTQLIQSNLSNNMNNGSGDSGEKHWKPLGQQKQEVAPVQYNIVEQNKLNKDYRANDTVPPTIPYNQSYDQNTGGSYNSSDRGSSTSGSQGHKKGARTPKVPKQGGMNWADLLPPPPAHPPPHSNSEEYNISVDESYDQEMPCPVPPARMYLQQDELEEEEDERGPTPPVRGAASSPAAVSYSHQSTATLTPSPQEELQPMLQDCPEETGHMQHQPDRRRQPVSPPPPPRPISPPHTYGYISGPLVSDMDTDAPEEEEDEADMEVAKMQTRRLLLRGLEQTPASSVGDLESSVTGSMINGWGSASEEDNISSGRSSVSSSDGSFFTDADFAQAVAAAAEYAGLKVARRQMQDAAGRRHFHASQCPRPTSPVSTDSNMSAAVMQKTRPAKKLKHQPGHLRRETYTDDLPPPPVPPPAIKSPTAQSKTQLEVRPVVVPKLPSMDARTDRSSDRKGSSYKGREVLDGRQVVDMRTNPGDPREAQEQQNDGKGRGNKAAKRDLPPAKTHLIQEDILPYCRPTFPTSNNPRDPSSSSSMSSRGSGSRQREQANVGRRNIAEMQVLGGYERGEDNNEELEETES

B1: Slit2N protein (ligand, UniProt O94813 31-1121, looked up)
chain: QCSCSGSTVDCHGLALRSVPRNIPRNTERLDLNGNNITRITKTDFAGLRHLRVLQLMENKISTIERGAFQDLKELERLRLNRNHLQLFPELLFLGTAKLYRLDLSENQIQAIPRKAFRGAVDIKNLQLDYNQISCIEDGAFRALRDLEVLTLNNNNITRLSVASFNHMPKLRTFRLHSNNLYCDCHLAWLSDWLRQRPRVGLYTQCMGPSHLRGHNVAEVQKREFVCSGHQSFMAPSCSVLHCPAACTCSNNIVDCRGKGLTEIPTNLPETITEIRLEQNTIKVIPPGAFSPYKKLRRIDLSNNQISELAPDAFQGLRSLNSLVLYGNKITELPKSLFEGLFSLQLLLLNANKINCLRVDAFQDLHNLNLLSLYDNKLQTIAKGTFSPLRAIQTMHLAQNPFICDCHLKWLADYLHTNPIETSGARCTSPRRLANKRIGQIKSKKFRCSAKEQYFIPGTEDYRSKLSGDCFADLACPEKCRCEGTTVDCSNQKLNKIPEHIPQYTAELRLNNNEFTVLEATGIFKKLPQLRKINFSNNKITDIEEGAFEGASGVNEILLTSNRLENVQHKMFKGLESLKTLMLRSNRITCVGNDSFIGLSSVRLLSLYDNQITTVAPGAFDTLHSLSTLNLLANPFNCNCYLAWLGEWLRKKRIVTGNPRCQKPYFLKEIPIQDVAIQDFTCDDGNDDNSCSPLSRCPTECTCLDTVVRCSNKGLKVLPKGIPRDVTELYLDGNQFTLVPKELSNYKHLTLIDLSNNRISTLSNQSFSNMTQLLTLILSYNRLRCIPPRTFDGLKSLRLLSLHGNDISVVPEGAFNDLSALSHLAIGANPLYCDCNMQWLSDWVKSEYKEPGIARCAGPGEMADKLLLTTPSKKFTCQGPVDVNILAKCNPCLSNPCKNDGTCNSDPVDFYRCTCPYGFKGQDCDVPIHACISNPCKHGGTCHLKEGEEDGFWCICADGFEGENCEVNVDDCEDNDCENNSTCVDGINNYTCLCPPEYTGELCEEKLDFCAQDLNPCQHDSKCILTPKGFKCDCTPGYVGEHCDIDFDDCQDNKCKNGAHCTDAVNGYTCICPEGYSGLFCEFSPPMVLPR
notes: domain: protein at N-terminal of slit2 with a molecular weight of about 120 KDa; Comparator in the SPR experiment
- kon [1]: 744000 M⁻¹ s⁻¹
- Kd [2]: 4.5 nM
